Data taken from the DeepSol protein solubility set.

Assay: soluble on expression in E. coli; label from the status in PepcDB or PDB records

Soluble on expression in E. coli, not soluble:
MYIPPYKADDQDIVVELNSRFGAETFTVQPTRTGMPVLWVPRERLIEVLTFLRQVPKPYVMLYDLHGVDERLRTHRRGLPSADFSVFYHLMSLERNSDVMIKVALSERDLNLPTATRIWPNANWYEREVWDMYGITFTGHPHLTRMLMPPTWQGHPLRKDYPARATEFDPYSLSAAKQDLEQEALRFKPEDWGMKRHGENEDYMFLNLGPNHPSAHGAFRIILQLDGEEIIDCVPEIGYHHRGAEKMAERQSWHSFIPYTDRIDYLGGVMNNLPYVLSVEKLAGIKVPQRVDVIRIMMAEFFRILNHLLYLGTYIQDVGAMTPVFFTFTDRQRAYKVVEAITGFRLHPAWYRIGGVAHDLPRGWDKLVREFLDWMPKRLDEYETAALKNSILRGRTIGVAQYNTKEALEWGTTGAGLRATGCDFDLRKARPYSGYENFEFEVPLAHNGDAYDRCMVKMGEMRQSLRIIEQCLKNMPEGPYKADHPLTTPPPKERTLQHIETLITHFLQVSWGPVMPANEAFQMIEATKGINSYYLTSDGSTMSYRTRIRTPSFAHLQQIPSVINGSM
MCAVLGDNSVSYNTMKFWFEKIKKKNYDLDDKPRSGRPRLDIDEDISRALEDDPRSMSREISATLKRPHTTIINHLHESGRVPKFGQLVPHNLSDSQKNLRCDLSLSLLTRKRTTDWVKDITTGDEKWVLYVNHTRKKQWVPVEEHAEPDLKGELHEKKVLLSIWWDSMGVIFRELLPDGATINADLYCIQLEKVVHAHQLHRPRGSKLLLLHDNARPHTALKTRQKLQTLGIEVLPHPPYSPDLAPTDYHLFRSLQNHLAGQKFHDRKAVETWLDDFFASKSQEFYAEGIAQLPLRWQEVIDTNGEYITH
MGSDKIHHHHHHMTPITQSEINKAAWGACDTFRGVVDPSIYKDYVLTMLFLKYVSDVWKDHKASYAAHYPDSPELVAAMMERETFKLPETASFDALHGRRHEPGNGERIDKALHAIEEANGSKLRDVFQDISFNSNKLGDEEQKNDILRHLLEDFAKTALDLRPSRVGNLDIIGGAYEYLISRFAATAGKKAGEFYTPAEVSELMARLVDPQPGDDICDPTCGSASLLMKCGRLIREGGSKAYALFGQEAIGSTWALAKMNLFLHGEENHQIEWGDTIRNPKLRTSDDMLRHFDVVVANPPFSLDKWGVESAEADKFARFRRGIPPKTKGDYAFILHMIETLKPKTGRMAVVVPHGVLFRGSSEGKIRHKLIEDNLLDAVIGLPEKLFFGTGIPSAILVFRKDKADDSVLFVDASREFVAGTNQNALDMTLIEKIVATHQTRQTVEKYAYRATLAEIIENDFNLNIPRYVDTFEEEEEIDLMAVRAERMKLKGEMAELEDRMEGYLQELGY
MGSDKIHHHHHHMINLKELKILHTSDWHLGVTSWTSSRPVDRREELKKALDKVVEEAEKREVDLILLTGDLLHSRNNPSVVALHDLLDYLKRMMRTAPVVVLPGNHDWKGLKLFGNFVTSISSDITFVMSFEPVDVEAKRGQKVRILPFPYPDESEALRKNEGDFRFFLESRLNKLYEEALKKEDFAIFMGHFTVEGLAGYAGIEQGREIIINRALIPSVVDYAALGHIHSFREIQKQPLTIYPGSLIRIDFGEEADEKGAVFVELKRGEPPRYERIDASPLPLKTLYYKKIDTSALKSIRDFCRNFPGYVRVVYEEDSGILPDLMGEIDNLVKIERKSRREIEEVLRESPEEFKEELDKLDYFELFKEYLKKREENHEKLLKILDELLDEVKKSEA
PDIHHPSDFSIQKLSKDEDNYVAWKIRFRSFLRVTKKFGFIDGTLPKPDPFSPLYQPWEQCNAMVMYWLMNSMTDKLLESVMYAETAHKMWEDLRRVFVPCVDLKIYQLRRRLATLRQGGDSVEEYFGKLSKVWMELSEYAPIPECKCGGCNCECTKRAEEAREKEQRYEFLMGLKLNQGFEAVTTKIMFQKPPPSLHEAFAMVKDAESMMKWYSR
MTHVCSVILIRRSFDIYHEQQKISLHNESILLLEKNLADDFAFCSPDTRRLDIDELTVCHYLQNIRQLPRNLGLHSKDRLLINQSPPMPLVTAIFDSFNESGVNSPILSNMLYLSCLSMFSHKKELIPLLFNSISTVSGKVERLISFDIAKRWYLRDIAERMYTSESLIKKKLQDENTCFSKILLASRMSMARRLLELRQIPLHTIAEKCGYSSTSYFINTFRQYYGVTPHQFAQHSPGTFS
MLRHKEPGSGSGGGVYWVDSQQKRYVPVKGDHVIGIVTAKSGDIFKVDVGGSEPASLSYLSFEGATKRNRPNVQAISSRLLEHHHHHH
MSIMGKVAKLDSAMQRGLDNSFAFVFGGKLVPAEIEELLKQEVQDNIVRAYEGGVESPNVFRVRVSRKDAQNLAQRYPSLADDFADRLSRYTRNQGWSTEGPVVVTIAADSGLRTGQLHASSAFDPVPQEYSHFIGVEDDVAAAAPTNDESNYESESGMNSYDADPRTEYMTAQAPDAIYTEVPVPEPKATPTVSLLLQDGSSRTYLVEEGSNIIGRSNEAHFRLPDTGVSRQHAEITWNGRDAILTDLKSTNGTTVNDTPVENWLLEDGDVITVGHSHIEVRIVEPN
MNDDLCYKLNYLARLILSKVNEKIKPHGVTQGQLPVLCCLHDAEGQTQAELCKNIQVEQPTMANTLRRMERDGLIFRTASDKDKRQSRVYITERTRPTVEALQEKRDEVVAAMVRHMSPEDLATFTRLLDVATKALENPETE
MGSDKIHHHHHHMVLQHYFRHYCRSFCSPDDKALFMQCSRLTQVDFDQLTLGAQVLEADSHGAKVYLLTDGNFLKVFRRKRLISSALLRPYSQRFVDNAARLAQLGIPTLEVISQHKLDLPGRTAVLYRPLPGRTLLQMSRDDGFSWDTYLPRLIELIRQLHRSGVYFRSLHLGNVVVTPDQRLGLIDVADMRFLRPPLSARMIRRNVQHMVRYIERENLGDRFPLAAFEAALLTR
MKLLQKQQQQGGGDNQDQNKENNHDKKQPQNNPNNNNQGGQQQPQPSKQDNTQKDQQPRQNEMSRESAEKILKAYEQDEEKTREKVEQMRKQRMKQQKGNSTKQW

Soluble on expression in E. coli, soluble:
MEGISNFKTPSKLSEKKKSVLCSTPTINIPASPFMQKLGFGTGVNVYLMKRSPRGLSHSPWAVKKINPICNDHYRSVYQKRLMDEAKILKSLHHPNIVGYRAFTEANDGSLCLAMEYGGEKSLNDLIEERYKASQDPFPAAIILKVALNMARGLKYLHQEKKLLHGDIKSSNVVIKGDFETIKICDVGVSLPLDENMTVTDPEACYIGTEPWKPKEAVEENGVITDKADIFAFGLTLWEMMTLSIPHINLSNDDDDEDKTFDESDFDDEAYYAALGTRPPINMEELDESYQKVIELFSVCTNEDPKDRPSAAHIVEALETDV
VKLTEKQKAFCDYYIETLNATESYKKAGYKVKTDGAARVNASRLLTNANVRKYIEERMKQKESERIASQDEVLEFLTRVMRGQEVEEVVGFTEYGAVKEKKTPSARDRVKAAELLGKRYALFTEKVNVEGNMGVAIIDDIKEDDSDDAS
SLDDMTEFKNMPKVELHAHLSGSLSPETIKLIMESDETRAEEIMKKYKLEKPENMTGVFDCFPVIHAILRKPEAIRIAIRQTIKEFEEDNCVYLELRTSPKETDFMTYEDYLQVCIESFEAAKHEFPRIKTFLIVSLDRRMPFETAAHILGLIGEAQQRTNVIVGVELSGDPHLDGRRLLKLFVAARRFHGLGITIHLAEVLQNMADVEDYLNLRPDRIGHGTFLHTDPYTEYLTNKYKIPLEICLSSNVYSKTTTNYRNSHFNYWRKRGVPVFICTDDKGVIPGATLTEEYYKAAITFDLSTEELIGINQDALLNSFAYKYNVTDLTETFRKINNNVLD
MGSDKIHHHHHHVLDKIELFILDMDGTFYLDDSLLPGSLEFLETLKEKNKRFVFFTNNSSLGAQDYVRKLRNMGVDVPDDAVVTSGEITAEHMLKRFGRCRIFLLGTPQLKKVFEAYGHVIDEENPDFVVLGFDKTLTYERLKKACILLRKGKFYIATHPDINCPSKEGPVPDAGSIMAAIEASTGRKPDLIAGKPNPLVVDVISEKFGVPKERMAMVGDRLYTDVKLGKNAGIVSILVLTGETTPEDLERAETKPDFVFKNLGELAKAVQ
MSLMNKSQQVQTITLAAAQQMAAAVEKKATEINVAVVFSVVDRGGNTLLIQRMDEAFVSSCDISLNKAWSACSLKQGTHEITSAVQPGQSLYGLQLTNQQRIIIFGGGLPVIFNEQVIGAVGVSGGTVEQDQLLAQCALDCFSALEGGSHHHHHH
MNKKELIDRVAKKAGAKKKDVKLILDTILETITEALAKGEKVQIVGFGSFEVRKAAARKGVNPQTRKPITIPERKVPKFKPGKALKEKVK
MSSVAVLTQESFAEHRSGLVPQQIKVATLNSEEESDPPTYKDAFPPLPEKAACLESAQEPAGAWGNKIRPIKASVITQVFHVPLEERKYKDMNQFGEGEQAKICLEIMQRTGAHLELSLAKDQGLSIMVSGKLDAVMKARKDIVARLQTQASATVAIPKEHHRFVIGKNGEKLQDLELKTATKIQIPRPDDPSNQIKITGTKEGIEKARHEVLLISAEQDKRAVERLEVEKAFHPFIAGPYNRLVGEIMQETGTRINIPPPSVNRTEIVFTGEKEQLAQAVARIKKIYEEKKKKTTTIAVEVKKSQHKYVIGPKGNSLQEILERTGVSVEIPPSDSISETVILRGEPEKLGQALTEVYAKANSFTVSSVAAPSWLHRFIIGKKGQNLAKITQQMPKVHIEFTEGEDKITLEGPTEDVSVAQEQIEGMVKDLINRMDYVEINIDHKFHRHLIGKSGANINRIKDQYKVSVRIPPDSEKSNLIRIEGDPQGVQQAKRELLELASRMENERTKDLIIEQRFHRTIIGQKGERIREIRDKFPEVIINFPDPAQKSDIVQLRGPKNEVEKCTKYMQKMVADLVENSYSISVPIFKQFHKNIIGKGGANIKKIREESNTKIDLPAENSNSETIIITGKRANCEAARSRILSIQKDLANIAEVEVSIPAKLHNSLIGTKGRLIRSIMEECGGVHIHFPVEGSGSDTVVIRGPSSDVEKAKKQLLHLAEEKQTKSFTVDIRAKPEYHKFLIGKGGGKIRKVRDSTGARVIFPAAEDKDQDLITIIGKEDAVREAQKELEALIQNLDNVVEDSMLVDPKHHRHFVIRRGQVLREIAEEYGGVMVSFPRSGTQSDKVTLKGAKDCVEAAKKRIQEIIEDLEAQVTLECAIPQKFHRSVMGPKGSRIQQITRDFSVQIKFPDREENAVHSTEPVVQENGDEAGEGREAKDCDPGSPRRCDIIIISGRKEKCEAAKEALEALVPVTIEVEVPFDLHRYVIGQKGSGIRKMMDEFEVNIHVPAPELQSDIIAITGLAANLDRAKAGLLERVKELQAEQEDRALRSFKLSVTVDPKYHPKIIGRKGAVITQIRLEHDVNIQFPDKDDGNQPQDQITITGYEKNTEAARDAILRIVGELEQMVSEDVPLDHRVHARIIGARGKAIRKIMDEFKVDIRFPQSGAPDPNCVTVTGLPENVEEAIDHILNLEEEYLADVVDSEALQVYMKPPAHEEAKAPSRGFVVRDAPWTASSSEKAPDMSSSEEFPSFGAQVAPKTLPWGPKR
MTTKNTLQPTEAAYIAGFLDGDGSIYAKLIPRPDYKDIKYQVSLAISFIQRKDKFPYLQDIYDQLGKRGNLRKDRGDGIADYTIIGSTHLSIILPDLVPYLRIKKKQANRILHIINLYPQAQKNPSKFLDLVKIVDDVQNLNKRADELKSTNYDRLLEEFLKAGKIESSP
MDYMERPKLGLIVREPYASLIVDGRKVWEIRRRKTRHRGPLGIVSGGRLIGQADLVGVEGPFSVEELLAHQEKHLAEEAFLRAYAKDEPLYAWVLENAFRYEKPLHVPRRPGRVMFVDLSEVRW
